Test results: article PMC12371506 (ACS Bio & Med Chem Au, 2025)
Residues, ends and D or L forms follow the SMILES beside them. *: point of attachment. AMC = Cc1cc(=O)oc2cc(N*)ccc12; Cbz = O=C(OCc1ccccc1)*; CH2Cl = ClC*; CH2F = FC*

T1: caspase-9 (Homo sapiens, UniProt P55211)
T1 sequence (P55211 1-315 limits assumed): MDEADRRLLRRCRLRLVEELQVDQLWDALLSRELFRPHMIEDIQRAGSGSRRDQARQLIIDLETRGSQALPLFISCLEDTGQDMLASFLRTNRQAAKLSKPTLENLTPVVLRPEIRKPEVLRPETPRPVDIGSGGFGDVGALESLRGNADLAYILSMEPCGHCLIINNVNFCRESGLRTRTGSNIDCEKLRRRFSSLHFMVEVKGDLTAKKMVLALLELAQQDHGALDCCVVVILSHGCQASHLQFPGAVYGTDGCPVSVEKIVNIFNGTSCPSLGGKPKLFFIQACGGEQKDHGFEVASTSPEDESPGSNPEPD
T1 sequence (P55211 331-416 limits assumed): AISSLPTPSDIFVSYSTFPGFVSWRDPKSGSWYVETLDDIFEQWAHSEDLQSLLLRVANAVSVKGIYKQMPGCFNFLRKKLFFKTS

T2: caspase-1 (Homo sapiens, UniProt P29466)
T2 sequence (P29466 120-297 limits assumed): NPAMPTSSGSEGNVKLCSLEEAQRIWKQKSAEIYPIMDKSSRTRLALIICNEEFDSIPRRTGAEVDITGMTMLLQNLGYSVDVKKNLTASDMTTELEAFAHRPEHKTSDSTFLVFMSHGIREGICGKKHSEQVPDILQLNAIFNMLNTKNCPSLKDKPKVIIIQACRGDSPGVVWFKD
T2 sequence (P29466 317-404 limits assumed): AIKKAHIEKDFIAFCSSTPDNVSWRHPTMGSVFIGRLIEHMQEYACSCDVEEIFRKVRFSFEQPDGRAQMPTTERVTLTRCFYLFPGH

T3: caspase-3 (Homo sapiens, UniProt P42574)
T3 sequence (P42574 29-175 limits assumed): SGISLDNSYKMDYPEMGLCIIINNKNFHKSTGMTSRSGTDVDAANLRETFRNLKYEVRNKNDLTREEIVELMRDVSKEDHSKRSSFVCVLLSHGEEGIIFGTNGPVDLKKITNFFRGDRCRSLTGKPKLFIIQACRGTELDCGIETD
T3 sequence (P42574 176-277 limits assumed): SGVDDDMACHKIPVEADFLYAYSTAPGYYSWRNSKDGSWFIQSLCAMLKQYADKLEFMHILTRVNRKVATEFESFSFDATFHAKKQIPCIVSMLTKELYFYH

T4: caspase-4 (Homo sapiens, UniProt P49662)
T4 sequence (P49662 81-270 limits assumed): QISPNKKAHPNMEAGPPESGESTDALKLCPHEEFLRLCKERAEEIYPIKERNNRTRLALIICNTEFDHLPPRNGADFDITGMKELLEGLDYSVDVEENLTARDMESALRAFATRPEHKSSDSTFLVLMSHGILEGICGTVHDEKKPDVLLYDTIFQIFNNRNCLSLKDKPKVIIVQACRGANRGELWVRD
T4 sequence (P49662 290-377 limits assumed): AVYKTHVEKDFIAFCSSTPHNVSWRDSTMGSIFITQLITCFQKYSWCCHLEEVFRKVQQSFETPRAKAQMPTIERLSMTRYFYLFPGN

T5: caspase-6 (Homo sapiens, UniProt P55212)
T5 sequence (P55212 24-179 limits assumed): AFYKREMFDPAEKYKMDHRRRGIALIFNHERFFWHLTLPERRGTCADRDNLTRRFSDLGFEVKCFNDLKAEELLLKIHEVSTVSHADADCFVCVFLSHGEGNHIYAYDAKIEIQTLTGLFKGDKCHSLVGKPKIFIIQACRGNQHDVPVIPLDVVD
T5 sequence (P55212 194-293 limits assumed): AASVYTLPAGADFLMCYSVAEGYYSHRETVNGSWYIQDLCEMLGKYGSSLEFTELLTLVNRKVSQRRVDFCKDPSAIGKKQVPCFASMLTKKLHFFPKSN

T6: caspase-7 (Homo sapiens, UniProt P55210)
T6 sequence (P55210 24-198 limits assumed): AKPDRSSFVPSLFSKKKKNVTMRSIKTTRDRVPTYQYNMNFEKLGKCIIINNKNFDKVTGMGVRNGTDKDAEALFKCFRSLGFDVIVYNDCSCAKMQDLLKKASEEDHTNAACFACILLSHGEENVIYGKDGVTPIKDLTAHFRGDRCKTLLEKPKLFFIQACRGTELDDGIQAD
T6 sequence (P55210 207-303 limits assumed): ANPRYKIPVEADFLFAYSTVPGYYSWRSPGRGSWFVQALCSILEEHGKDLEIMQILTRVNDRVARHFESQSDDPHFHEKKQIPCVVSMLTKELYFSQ

T7: caspase-10 (Homo sapiens, UniProt Q92851)
T7 sequence (Q92851 220-415 limits assumed): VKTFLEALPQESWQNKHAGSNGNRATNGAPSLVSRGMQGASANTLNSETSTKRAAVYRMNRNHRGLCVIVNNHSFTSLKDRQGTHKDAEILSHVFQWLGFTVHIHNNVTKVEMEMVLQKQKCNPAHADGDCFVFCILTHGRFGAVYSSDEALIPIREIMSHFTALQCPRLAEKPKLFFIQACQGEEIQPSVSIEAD
T7 sequence (Q92851 416-521 limits assumed): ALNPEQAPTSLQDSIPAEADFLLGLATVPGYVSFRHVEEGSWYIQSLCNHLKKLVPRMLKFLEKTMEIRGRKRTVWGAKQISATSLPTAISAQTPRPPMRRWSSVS

T8: caspase-9 (full-length) (Homo sapiens, UniProt P55211)
T8 sequence (P55211 1-315 limits assumed): T1 sequence (P55211 1-315 limits assumed)
T8 sequence (P55211 331-416 limits assumed): T1 sequence (P55211 331-416 limits assumed)

T9: caspase-5 (Homo sapiens, UniProt P51878)
T9 sequence (P51878 137-327 limits assumed): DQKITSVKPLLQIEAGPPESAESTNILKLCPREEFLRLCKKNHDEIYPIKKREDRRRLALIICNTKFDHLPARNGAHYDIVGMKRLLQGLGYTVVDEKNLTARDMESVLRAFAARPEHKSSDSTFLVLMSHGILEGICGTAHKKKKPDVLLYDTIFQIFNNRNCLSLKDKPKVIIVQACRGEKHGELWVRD
T9 sequence (P51878 347-434 limits assumed): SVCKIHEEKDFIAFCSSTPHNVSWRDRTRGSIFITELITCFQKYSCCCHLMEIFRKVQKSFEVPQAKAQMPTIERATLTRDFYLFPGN

T10: caspase-11 (Mus musculus, UniProt P70343)
T10 sequence (P70343 81-266 limits assumed): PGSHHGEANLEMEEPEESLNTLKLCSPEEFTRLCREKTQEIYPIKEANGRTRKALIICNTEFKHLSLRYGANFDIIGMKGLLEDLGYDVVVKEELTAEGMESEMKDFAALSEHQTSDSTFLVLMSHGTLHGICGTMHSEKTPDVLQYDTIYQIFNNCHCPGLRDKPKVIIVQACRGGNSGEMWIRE
T10 sequence (P70343 286-373 limits assumed): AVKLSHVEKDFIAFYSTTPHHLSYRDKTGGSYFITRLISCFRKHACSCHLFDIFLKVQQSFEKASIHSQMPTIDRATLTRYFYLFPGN

B1: N-acetyl-Leu-Glu-Ser-Asp-chloromethylketone (peptide)
peptide: Ac-LESD-CH2Cl
SMILES: CC(=O)N[C@@H](CC(C)C)C(=O)N[C@@H](CCC(=O)O)C(=O)N[C@@H](CO)C(=O)N[C@@H](CC(=O)O)C(=O)CCl

What was measured:
caspase-9 = target: T1, caspase-9; assay: In vitro inhibition assay, caspase-9; format: biochemical
THP1 monocytes = assay: TRAIL-induced extrinsic apoptosis in THP1 monocytes; format: cell-based, human; conditions: 25 μM inhibitor
caspase-1 = target: T2, caspase-1; assay: In vitro substrate kinetics, caspase-1; format: biochemical; conditions: caspase-1, 0.25 activity units/μL
caspase-3 = target: T3, caspase-3; assay: In vitro substrate kinetics, caspase-3; format: biochemical; conditions: caspase-3, 0.25 activity units/μL
caspase-4 = target: T4, caspase-4; assay: In vitro substrate kinetics, caspase-4; format: biochemical; conditions: caspase-4, 0.25 activity units/μL
caspase-6 = target: T5, caspase-6; assay: In vitro substrate kinetics, caspase-6; format: biochemical; conditions: caspase-6, 0.25 activity units/μL
caspase-7 = target: T6, caspase-7; assay: In vitro substrate kinetics, caspase-7; format: biochemical; conditions: caspase-7, 0.25 activity units/μL
caspase-8 = caspase-8 (Homo sapiens, UniProt Q14790); assay: In vitro substrate kinetics, caspase-8; format: biochemical; conditions: for K M / Relative k cat/K M / V max: caspase-8, 0.25 activity units/μL
caspase-10 = target: T7, caspase-10; assay: In vitro substrate kinetics, caspase-10; format: biochemical; conditions: for K M / Relative k cat/K M / V max: caspase-10, 0.25 activity units/μL
caspase-9 (full-length) = target: T8, caspase-9 (full-length); assay: In vitro substrate kinetics, caspase-9; conditions: caspase-9, 1 activity unit/μL, different preparation
caspase-5 = target: T9, caspase-5; assay: In vitro substrate kinetics, caspase-5; format: biochemical
caspase-11 = target: T10, caspase-11; assay: In vitro substrate kinetics, caspase-11; format: biochemical
[1] = test system: HCC1806 triple-negative breast cancer cells; assay: TNF-α-induced extrinsic apoptosis in HCC1806 cells; conditions: 10 μM inhibitor 30 min, then TNF-α; early time points (2–6 h)
[2] = target: Caspase-9 (full-length) (human), (recombinant) (human) (UniProt P55211)
[3] = caspase-5, 0.25 activity units/μL
[4] = mouse caspase-11, 0.25 activity units/μL

caspase-8, sequence (Q14790 217-374 limits assumed): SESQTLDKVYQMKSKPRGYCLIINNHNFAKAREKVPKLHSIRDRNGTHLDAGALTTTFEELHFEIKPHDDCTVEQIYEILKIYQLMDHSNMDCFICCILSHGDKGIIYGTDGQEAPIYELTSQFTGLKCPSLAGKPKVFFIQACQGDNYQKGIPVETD
caspase-8, sequence (Q14790 385-479 limits assumed): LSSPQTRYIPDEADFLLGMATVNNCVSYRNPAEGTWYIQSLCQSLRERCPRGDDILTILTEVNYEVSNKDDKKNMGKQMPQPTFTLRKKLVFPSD

Row | Molecule | IC50 (caspase-9) [nM] | K M (caspase-1) [µM] | Relative k cat/K M (caspase-1) | V max (caspase-1) [RFU/min] | Relative k cat/K M (caspase-3) | K M (caspase-4) [µM] | Relative k cat/K M (caspase-4) | V max (caspase-4) [RFU/min] | Relative k cat/K M (caspase-6) | Relative k cat/K M (caspase-7) | K M (caspase-8) [µM] | Relative k cat/K M (caspase-8) | V max (caspase-8) [RFU/min] | K M (caspase-10) [µM] | Relative k cat/K M (caspase-10) | V max (caspase-10) [RFU/min] | Relative k cat/K M (caspase-9 (full-length)) | also measured
1 | COC(=O)CC[C@H](NC(=O)[C@H](CC(C)C)NC(=O)OCc1ccccc1)C(=O)N[C@@H](Cc1c[nH]cn1)C(=O)N[C@@H](CC(=O)OC)C(=O)CF [zLEHD-FMK] (Cbz-LE(OMe)HD(OMe)-CH2F) | 800 ± 320 |  |  |  |  |  |  |  |  |  |  |  |  |  |  |  |  | relative potency at inhibiting caspases-3/7 activity (caspases-3/7 dye) (THP1 monocytes): more potent than zIETD-FMK
2 | Ac-DEVD-AMC [reference compound] |  | 47.5 ± 30.8 | 1.41 ± 0.43 | 44.68 ± 15.51 | 482 ± 76.5 | 702 ± 76.3 | 1.27 ± 0.18 | 862.73 ± 31.55 | 13.3 ± 2.24 | 561 ± 81.2 | 0.75 ± 0.12 | 310 ± 60.4 | 218.27 ± 2.74 | 70.3 ± 14.6 | 7.20 ± 1.02 | 476.26 ± 38.71 | did not cleave | K M (caspase-3): 2.07 ± 0.36 µM; V max (caspase-3): 940.88 ± 31.57 RFU/min; K M (caspase-6): 35.3 ± 5.12 µM; V max (caspase-6): 455.67 ± 64.18 RFU/min; K M (caspase-7): 2.36 ± 0.36 µM; V max (caspase-7): 1266.91 ± 38.79 RFU/min
3 | N-acetyl-Leu-Glu-Ser-Asp-aminomethylcoumarin (Ac-LESD-{AMC}; SMILES CC(=O)N[C@@H](CC(C)C)C(=O)N[C@@H](CCC(=O)O)C(=O)N[C@@H](CO)C(=O)N[C@@H](CC(=O)O)C(=O)Nc1ccc2c(C)cc(=O)oc2c1) [Ac-LESD-AMC] |  | 93.9 ± 6.26 | 5.01 ± 0.41 | 465.55 ± 10.25 | did not detect processing | 1867 ± 388 | 1.44 ± 0.18 | 2546.06 ± 156.63 | did not detect processing | did not detect processing | 9.98 ± 0.37 | 59.2 ± 3.26 | 590.08 ± 30.37 | 87.9 ± 5.38 | 10.4 ± 1.30 | 898.63 ± 57.69 | 0.15 | catalytic efficiency within x-fold of preferred substrate Ac-WEHD-AMC (caspase-5; caspase-5): ≤ 5 fold; K M (caspase-5; [3]): 154 ± 13.5 µM; Relative k cat/K M (caspase-5; [3]): 4.65 ± 0.43; V max (caspase-5; [3]): 703.19 ± 24.07 RFU/min; catalytic efficiency within x-fold of preferred substrate Ac-LEHD-AMC (caspase-8; caspase-8): ≤ 3 fold; catalytic efficiency within x-fold of preferred substrate Ac-LEHD-AMC (caspase-10; caspase-10): ≤ 3 fold; K M (caspase-11; [4]): 503 ± 58.4 µM; Relative k cat/K M (caspase-11; [4]): 0.42 ± 0.02; V max (caspase-11; [4]): 211.01 ± 15.01 RFU/min; fold slower cleavage by caspase-11 than by caspase-8 (caspase-11; relative k cat/K M): ~100 fold; K M (caspase-9 (full-length)): 1513.83 ± 441.20 µM; V max (caspase-9 (full-length)): 208.50 ± 45.00 RFU/min; Relative k cat/K M (caspase-9 (full-length); listed as LESD-AMC): 0.15 ± 0.02
4 | CCO[C@@H]1OC(=O)C[C@@H]1NC(=O)[C@@H]1CCCN1C(=O)[C@@H](NC(=O)c1ccc(N)c(Cl)c1)C(C)(C)C [VX-765, (S)-1-((S)-2-{[1-(4-amino-3-chloro-phenyl)-methanoyl]-amino}-3,3-dimethyl-butanoyl)-pyrrolidine-2-carboxylic acid ((2R,3S)-2-ethoxy-5-oxo-tetrahydro-furan-3-yl)-amide] | 540 ± 260 |  |  |  |  |  |  |  |  |  |  |  |  |  |  |  |  | 
5 | CC[C@H](C)[C@H](NC(=O)OCc1ccccc1)C(=O)N[C@@H](CCC(=O)OC)C(=O)N[C@H](C(=O)N[C@@H](CC(=O)OC)C(=O)CF)[C@@H](C)O [zIETD-FMK] (Cbz-IE(OMe)TD(OMe)-CH2F) | 1470 ± 620 |  |  |  |  |  |  |  |  |  |  |  |  |  |  |  |  | caspases-3/7 activation (caspase-3/7 dye) [1]: inhibition of caspases-3/7 activation
6 | B1 |  |  |  |  |  |  |  |  |  |  |  |  |  |  |  |  |  | IC50 of inhibition of caspase activity (rate of cleavage of 200 μM Ac-LEHD-AMC) [2]: 7450 nM
